US20030224458A1 (published 2003)
Ends that are not written are not given here.

B1: Peptide modulator of HGPRBMY23 FVGTFDWQSYPLLSF (peptide)
peptide: FVGTFDWQSYPLLSF
modifications: not fully specified (N-terminus, C-terminus)
notes: Synthetic versions are described as N-acetylated peptides made on Knorr amide resin (C-terminal amide)
B2: Peptide modulator of HGPRBMY23 LFASSDWSSFPVLVF (peptide)
peptide: LFASSDWSSFPVLVF
modifications: also: synthetic versions N-acetylated, C-terminal amide, also phage-displayed
notes: as for B1
B3: Peptide modulator of HGPRBMY23 SRVSGAKVWFLSNWS (peptide)
peptide: SRVSGAKVWFLSNWS
modifications: also: synthetic versions N-acetylated, C-terminal amide, also phage-displayed
notes: as for B1

Target: T1, HGPRBMY23 polypeptide (novel human G-protein coupled receptor) (human, UniProt Q96P68 1-337)
T1 construct: For phage panning it was expressed on CHO-K1 cells from the pcDNA3.1 Hygro-HGPRBMY23 construct; For immunohistochemistry it was the native protein in paraffin-embedded, formalin-fixed tissue sections; also called GPCR92
Experiment: phage display panning on CHO-K1 cells transfected with HGPRBMY23, after preadsorption on integrin and parental cells
Procedure: Typically, this corresponded to one P175 flask with near-confluent growth. A similar number of parental cells were grown for preadsorption. One day prior to panning, two or three 96-well Immulon plates were coated integrin. Plates were coated overnight at 4° C. in NaHCO₃, pH 9.5, with ˜50 ng of αVβ3 integrin (Chemicon; Cat. #CC1020) per well per library.
On the day of panning, growth medium was discarded and cells were washed with 10 ml PBS by allowing the buffer to flow over the cells. The PBS was removed and 10 ml Tris-EDTA detaching buffer (Gibco Cat. #13150-016; no trypsin) was added for 2 min. Plates were tapped and/or pipetted up and down to detach cells. This was done quickly to minimize the exposure of the cells to this reagent. Cells were pelleted by centrifugation at 3K, and then washed with 20 ml PBS. Cells were resuspended cells in PBS with 2% milk blocking agent plus protease inhibitor (EDTA-free; Roche Cat. #1 873 580). For each library, cell suspensions of ˜500 ul were used. Cells were blocked for 30-60 min with gentle rocking at room temperature. The integrin-coated wells were washed 3× in PBST, then blocked with 2% BSA in PBS for 30 min or more. To preadsorb against integrin, input phage was added to the integrin-coated wells, and incubated for 30 min or more.
At this stage, the blocked parental cells were divided into the required number of aliquots (500 ul aliquot/library). The phage supernatants were added from the integrin-preadsorption step. Preadsorption against the parental cells was carried out for 30 min or more with gentle rocking. The blocked transfected cells were divided into the required number of aliquots (500 ul aliquot per library). The transfected cells were pelleted, and the supernatant was discarded. The phage supernatants from the two preadsorption steps were added, and cells were incubated with gentle rocking for 2 h or more. Cells were washed 6-8×with PBST at 5 min intervals. Each wash was performed by gently pipetting the cells up and down, and cells were centrifuged at low speed. […]

T1 sequence (Q96P68 whole entry): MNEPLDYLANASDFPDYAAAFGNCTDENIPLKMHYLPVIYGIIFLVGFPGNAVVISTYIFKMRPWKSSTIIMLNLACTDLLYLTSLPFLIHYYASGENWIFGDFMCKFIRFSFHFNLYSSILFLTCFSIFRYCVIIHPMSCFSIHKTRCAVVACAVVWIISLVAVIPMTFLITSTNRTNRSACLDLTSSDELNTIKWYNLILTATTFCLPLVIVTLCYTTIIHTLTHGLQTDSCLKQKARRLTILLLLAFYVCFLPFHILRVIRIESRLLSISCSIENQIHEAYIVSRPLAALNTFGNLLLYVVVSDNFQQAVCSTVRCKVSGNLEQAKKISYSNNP

Q: Does B1 bind?
A: binds

Q: Does B2 bind?
A: binds

Q: Does B3 bind?
A: binds
